Consider 1 molecule from paper PMC6212441, “Direct visualization of DNA baton pass between replication factors bound to PCNA” (Scientific Reports, 2018).

Experiment [1] deals with T1, P. furiosus DNA ligase (Lig) (Pyrococcus furiosus, UniProt P56709 1-561).
T1 construct: DNA ligase (Lig) of Pyrococcus furiosus, with DBD, AdD and OBD domains and the PIP-box motif 103-QKSFF-107
T1 sequence: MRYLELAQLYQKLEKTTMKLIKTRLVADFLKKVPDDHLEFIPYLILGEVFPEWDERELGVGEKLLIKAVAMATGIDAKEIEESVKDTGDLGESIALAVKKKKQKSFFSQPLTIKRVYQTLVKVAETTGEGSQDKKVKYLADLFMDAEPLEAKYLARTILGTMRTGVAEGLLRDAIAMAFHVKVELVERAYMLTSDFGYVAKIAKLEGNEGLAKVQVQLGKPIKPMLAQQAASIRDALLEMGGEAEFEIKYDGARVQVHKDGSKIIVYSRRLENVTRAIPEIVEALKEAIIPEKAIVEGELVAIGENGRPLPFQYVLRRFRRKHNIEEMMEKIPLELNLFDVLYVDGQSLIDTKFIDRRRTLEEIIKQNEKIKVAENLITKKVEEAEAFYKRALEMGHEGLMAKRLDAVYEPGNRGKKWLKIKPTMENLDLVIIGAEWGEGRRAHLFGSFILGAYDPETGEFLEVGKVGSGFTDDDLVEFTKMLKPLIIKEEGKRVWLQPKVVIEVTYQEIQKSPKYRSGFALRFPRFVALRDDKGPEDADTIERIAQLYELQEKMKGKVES
In words: negative-stain electron microscopy, single particle analysis; wild type FEN, Lig, PCNA and nonligatable nicked DNA (Substrate-B) mixed in 20 mM MES pH 6.5, 50 mM NaCl, 0.1 mM ATP, 5 mM MgCl2, 50 °C 10 min; complex isolated on Superdex 200 without crosslinking; 2% uranyl acetate stain; two classes, maps at 16 Å and 20 Å with crystal structures fitted. As to conditions: both partners purified.

The target in experiment [2] is T2, P. furiosus proliferating cell nuclear antigen (PCNA) (Pyrococcus furiosus), O73947.
T2 chain: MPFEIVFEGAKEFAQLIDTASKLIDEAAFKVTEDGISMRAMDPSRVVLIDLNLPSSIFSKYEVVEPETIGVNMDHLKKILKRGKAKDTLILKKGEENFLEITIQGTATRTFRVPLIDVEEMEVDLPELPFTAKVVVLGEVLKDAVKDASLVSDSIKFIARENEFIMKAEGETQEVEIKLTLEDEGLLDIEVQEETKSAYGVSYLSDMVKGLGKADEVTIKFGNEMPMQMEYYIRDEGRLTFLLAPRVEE
In words: negative-stain electron microscopy, single particle analysis; FEN (D175A), PCNA and double flap DNA (Substrate-A) mixed in 50 mM Tris-HCl pH 8.0, 50 mM NaCl, 37 °C 10 min; complex isolated on Superdex 200 without crosslinking; 2% uranyl acetate stain; map at 19 Å with crystal structures fitted. As to conditions: remark: other sources report otherwise.

B1: P. furiosus proliferating cell nuclear antigen (PCNA) (natural protein, Pyrococcus furiosus)
chain: MPFEIVFEGAKEFAQLIDTASKLIDEAAFKVTEDGISMRAMDPSRVVLIDLNLPSSIFSKYEVVEPETIGVNMDHLKKILKRGKAKDTLILKKGEENFLEITIQGTATRTFRVPLIDVEEMEVDLPELPFTAKVVVLGEVLKDAVKDASLVSDSIKFIARENEFIMKAEGETQEVEIKLTLEDEGLLDIEVQEETKSAYGVSYLSDMVKGLGKADEVTIKFGNEMPMQMEYYIRDEGRLTFLLAPRVEE
notes: proliferating cell nuclear antigen (PCNA) of Pyrococcus furiosus, forms a homotrimeric ring; also called PCNA clamp; PCNA ring
Regarding B1, in experiment [1], the binding result is “binds”. Besides, the stoichiometry N – broadly, a count of units in the complex or per binding partner – in experiment [2] turned out to be 3.
